Source: publication PMC3905860, “DHX9 helicase is involved in preventing genomic instability induced by alternatively structured DNA in human cells”

Molecular target: DHX9 helicase (human, UniProt Q08211 1-1270)
Experiment: EMSA; 5 mM AMP-PNP, 10 mM Mg2+; 100 nM DHX9, 100 nM DNA; EMSA: 20 mM Tris-HCl pH 7.5, 50 mM NaCl, 1 mM DTT, 1 mM EDTA, 10 mM MgCl2, 5% glycerol, 5 mM AMP-PNP, 30 C 30 min; MBN assay: 10 mM Tris-HCl pH 7.5, 5 mM DTT, 100 ug/ml BSA, 5 mM MgCl2, 5 mM ATP or AMP-PNP, 10% glycerol, 35 C
Settings: protein: recombinant, tags: His, label: 5'-32P

DHX9 helicase, sequence (Q08211 whole entry): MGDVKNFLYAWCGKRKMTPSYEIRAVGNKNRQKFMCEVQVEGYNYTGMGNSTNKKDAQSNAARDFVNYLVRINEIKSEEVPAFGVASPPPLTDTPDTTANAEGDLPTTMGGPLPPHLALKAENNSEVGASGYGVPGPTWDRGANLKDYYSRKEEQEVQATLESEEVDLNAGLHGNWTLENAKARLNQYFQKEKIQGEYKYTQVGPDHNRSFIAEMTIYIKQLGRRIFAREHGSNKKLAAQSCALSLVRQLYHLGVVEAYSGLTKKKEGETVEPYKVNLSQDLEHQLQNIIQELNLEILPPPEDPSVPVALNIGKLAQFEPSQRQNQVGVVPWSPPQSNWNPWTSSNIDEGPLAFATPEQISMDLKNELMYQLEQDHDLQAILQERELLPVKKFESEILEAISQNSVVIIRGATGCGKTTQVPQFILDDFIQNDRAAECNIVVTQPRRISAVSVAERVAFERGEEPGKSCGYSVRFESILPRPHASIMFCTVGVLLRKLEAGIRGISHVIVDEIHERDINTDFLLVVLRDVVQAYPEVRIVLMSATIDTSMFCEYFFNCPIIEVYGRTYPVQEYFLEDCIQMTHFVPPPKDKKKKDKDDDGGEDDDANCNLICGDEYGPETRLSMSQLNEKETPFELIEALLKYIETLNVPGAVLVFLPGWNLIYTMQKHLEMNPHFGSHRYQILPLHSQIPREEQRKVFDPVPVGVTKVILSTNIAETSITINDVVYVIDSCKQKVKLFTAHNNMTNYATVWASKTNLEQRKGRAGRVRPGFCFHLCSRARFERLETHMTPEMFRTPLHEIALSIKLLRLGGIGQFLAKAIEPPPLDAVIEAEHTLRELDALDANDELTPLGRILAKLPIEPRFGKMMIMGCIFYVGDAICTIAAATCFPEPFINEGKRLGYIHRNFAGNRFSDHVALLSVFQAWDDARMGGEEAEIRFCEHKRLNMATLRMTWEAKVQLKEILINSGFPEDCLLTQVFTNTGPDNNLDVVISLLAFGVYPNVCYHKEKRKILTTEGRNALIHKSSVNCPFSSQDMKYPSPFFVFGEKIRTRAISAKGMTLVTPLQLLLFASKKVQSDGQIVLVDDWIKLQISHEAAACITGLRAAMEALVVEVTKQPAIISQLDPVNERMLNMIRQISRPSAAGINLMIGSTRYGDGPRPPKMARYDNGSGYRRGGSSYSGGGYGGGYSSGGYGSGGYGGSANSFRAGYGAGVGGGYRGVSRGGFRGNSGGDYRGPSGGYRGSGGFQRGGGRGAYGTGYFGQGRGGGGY

Binder	binding result (self-complementary, 2 copies of one strand, blunt, hairpin may also form)	binding result (intramolecular triplex with 3' overhang, single strand, pre-annealed with 10 mM Mg2+)
duplex DNA control (dsDNA) DNA 1: CTTGAGCTTGAGCTCAAGCTCAAG DNA 2: CTTGAGCTTGAGCTCAAGCTCAAG	no binding	
CCCCTCCCTTTTTGGGAGGGGCGCTTATGGGGAGGGCAGTCGAGCG (structured_DNA) [c-MYC-related intramolecular triplex with 3' overhang (H-DNA)]		binds
